± gives the uncertainty stated by the source.
B1: Nucleolar transcription factor 1, residues 408 to 469; numbered along this chain, P17480 (parent)
chain: KRPVSAMFIFSEEKRRQLQEERPELSESELTRLLARMWNDLSEKKKAKYKAREAALKAQSER

Variants of: B1
Assay: abundance fitness (aPCA) (normalised: wild type 0, dead -1); higher = more abundant; growth selection in yeast, the domain comes from the species named
Conditions: Homo sapiens

Abundance fitness of substitutions, site by site:
E21: M -0.073 ± 0.063; Y -0.276 ± 0.1; T 0.02 ± 0.066; D -0.126 ± 0.12; R -0.086 ± 0.044; V -0.1 ± 0.056; A -0.099 ± 0.072; W -0.189 ± 0.064; I -0.111 ± 0.18; L -0.097 ± 0.041; F -0.238 ± 0.085; P -1.1 ± 0.15; C -0.076 ± 0.1; H -0.163 ± 0.12; K -0.065 ± 0.075; Q -0.006 ± 0.076
P23: H -0.267 ± 0.1; R -0.252 ± 0.057; E -0.357 ± 0.068; T -0.218 ± 0.068; K -0.174 ± 0.062; N -0.319 ± 0.12; Y -0.402 ± 0.13; G -0.254 ± 0.058; D -0.431 ± 0.29; M -0.291 ± 0.071; F -0.402 ± 0.09; I -0.187 ± 0.09; Q -0.275 ± 0.078; A -0.256 ± 0.07; S -0.21 ± 0.06; W -0.588 ± 0.068; V -0.244 ± 0.067
L25: K -0.385 ± 0.082; C -0.134 ± 0.072; E -0.501 ± 0.076; A -0.106 ± 0.099; G -0.946 ± 0.067; M -0.011 ± 0.055; D -0.633 ± 0.1
R22: V -0.29 ± 0.053; Q -0.058 ± 0.082; C -0.081 ± 0.063; W -0.132 ± 0.062; P -1.06 ± 0.16; E -0.194 ± 0.11; F -0.057 ± 0.068; D -0.139 ± 0.11; K -0.089 ± 0.083; S -0.119 ± 0.05; I -0.286 ± 0.083; H 0.06 ± 0.11; N -0.002 ± 0.089; Y -0.068 ± 0.07; T -0.229 ± 0.075
K14: Y -0.038 ± 0.064; N -0.086 ± 0.075; A -0.057 ± 0.061; W -0.167 ± 0.067; R -0.034 ± 0.046; G -0.238 ± 0.058; Q -0.064 ± 0.079; V -0.07 ± 0.047; I -0.085 ± 0.15; E -0.229 ± 0.079; C -0.319 ± 0.095; M -0.044 ± 0.074; P -0.956 ± 0.092; D -0.729 ± 0.085; H 0.062 ± 0.088; F -0.034 ± 0.08
M7: R -0.043 ± 0.047; S -0.056 ± 0.049; N -0.086 ± 0.16; W -0.178 ± 0.046; G -0.131 ± 0.045; E -0.045 ± 0.065; V -0.058 ± 0.06; A -0.038 ± 0.067; Q 0.012 ± 0.076; D -0.144 ± 0.11; C -0.066 ± 0.083; L -0.086 ± 0.055; P -0.053 ± 0.077; Y -0.012 ± 0.086; H -0.028 ± 0.16; F -0.015 ± 0.2; T -0.22 ± 0.068; K -0.015 ± 0.052; I -0.151 ± 0.11
R16: E -0.106 ± 0.074; H -0.071 ± 0.07; V -0.044 ± 0.053; S -0.001 ± 0.048; F -0.147 ± 0.1; N -0.154 ± 0.16; K -0.073 ± 0.12; D -0.248 ± 0.094; G -0.037 ± 0.043; I -0.11 ± 0.13; T -0.078 ± 0.099; Q -0.041 ± 0.066; L -0.058 ± 0.056; M -0.024 ± 0.067; Y -0.072 ± 0.099; A -0.027 ± 0.051; C -0.012 ± 0.069; W -0.106 ± 0.054
S11: A -0.07 ± 0.081; M 0.093 ± 0.06; P -1.16 ± 0.11; G -0.028 ± 0.043; E -0.023 ± 0.067; T -0.013 ± 0.05; W -0.08 ± 0.056; V 0.024 ± 0.049; L -0.049 ± 0.049; Q -0.027 ± 0.073; C -0.102 ± 0.12; R -0.13 ± 0.043; F -0.029 ± 0.066; H -0.146 ± 0.18; Y 0.011 ± 0.073
E24: A -0.114 ± 0.059; G -0.069 ± 0.05; T -0.123 ± 0.057; M -0.148 ± 0.083; S -0.147 ± 0.05; L -0.209 ± 0.049; H -0.074 ± 0.11; F -0.144 ± 0.085; N -0.199 ± 0.16; D 0.03 ± 0.099; W -0.083 ± 0.064; P -0.451 ± 0.093; R -0.225 ± 0.06; V -0.401 ± 0.057; C -0.225 ± 0.14; I -0.544 ± 0.085; Q -0.151 ± 0.1
F8: E 0.02 ± 0.07; C -0.069 ± 0.11; T -0.066 ± 0.093; A -0.092 ± 0.12; G 0.029 ± 0.045; M -0.003 ± 0.053; W -0.03 ± 0.059; P -0.235 ± 0.061; D -0.023 ± 0.07; Y -0.001 ± 0.14; I -0.02 ± 0.1; N 0.024 ± 0.09; V -0.027 ± 0.055; Q -0.236 ± 0.11; S -0.039 ± 0.053; K -0.004 ± 0.07; R 0.005 ± 0.045
Q19: V -0.025 ± 0.047; L -0.017 ± 0.041; C -0.083 ± 0.063; M 0.012 ± 0.055; T -0.128 ± 0.065; N -0.129 ± 0.074; A -0.036 ± 0.06; I 0.009 ± 0.091; S -0.02 ± 0.041; G -0.076 ± 0.039; W -0.159 ± 0.043; Y -0.095 ± 0.082; H -0.099 ± 0.084; F -0.26 ± 0.11; R -0.016 ± 0.041; E -0.067 ± 0.054; K 0.007 ± 0.068
S5: Y -0.146 ± 0.15; W -0.455 ± 0.052; V -0.187 ± 0.064
A6: M -0.418 ± 0.094; P -0.306 ± 0.15; S -0.191 ± 0.076; V -0.488 ± 0.065; E -0.17 ± 0.067; R -0.401 ± 0.047; L -0.661 ± 0.06; G -0.045 ± 0.059; H -0.534 ± 0.12; C -0.225 ± 0.11; T -0.44 ± 0.088; D -0.191 ± 0.083; F -0.573 ± 0.093; Y -0.155 ± 0.2; W -0.453 ± 0.076; Q -0.331 ± 0.064
L18: G -1 ± 0.055; A -0.167 ± 0.052; H -0.639 ± 0.12; T -0.092 ± 0.074; N -0.98 ± 0.11; Q -0.531 ± 0.11; W -0.338 ± 0.047; M -0.108 ± 0.058; Y -0.063 ± 0.1; F -0.085 ± 0.13; P -1.37 ± 0.14; D -1.5 ± 0.23; E -0.664 ± 0.06; S -0.632 ± 0.058; R -0.965 ± 0.052; V -0.021 ± 0.041; C -0.127 ± 0.055
E13: Y -0.29 ± 0.23; V -0.187 ± 0.079; G -0.22 ± 0.043; M -0.124 ± 0.071; W -0.355 ± 0.054; R -0.207 ± 0.059; T -0.167 ± 0.089; I -0.177 ± 0.16; H -0.22 ± 0.19; N -0.344 ± 0.14; F -0.359 ± 0.13; A -0.205 ± 0.051; C -0.175 ± 0.067; K -0.106 ± 0.073; D -0.04 ± 0.1; L -0.277 ± 0.063; P -0.663 ± 0.074
Q17: W -0.106 ± 0.046; N -0.078 ± 0.22; D -0.112 ± 0.11; I -0.201 ± 0.14; R -0.114 ± 0.051; G -0.038 ± 0.041; C -0.211 ± 0.078; H -0.091 ± 0.12; L -0.034 ± 0.046; K -0.094 ± 0.068; M -0.028 ± 0.057; S -0.016 ± 0.053; E 0.002 ± 0.055; V -0.018 ± 0.057; T -0.026 ± 0.092; A -0.081 ± 0.068; Y -0.145 ± 0.12
R15: I -0.209 ± 0.094; Y -0.243 ± 0.16; E -0.279 ± 0.063; W -0.295 ± 0.096; F -0.111 ± 0.06; H -0.411 ± 0.2; D -1.2 ± 0.25; M -0.19 ± 0.11; N -0.427 ± 0.08; S -0.121 ± 0.05; A -0.201 ± 0.051; K 0.035 ± 0.078; Q -0.267 ± 0.13; T -0.23 ± 0.077; L -0.168 ± 0.043; V -0.29 ± 0.052; G -0.153 ± 0.043; P -1.28 ± 0.15; C -0.218 ± 0.071
E20: D 0.031 ± 0.11; W -0.152 ± 0.051; G -0.064 ± 0.037; M -0.099 ± 0.1; I -0.114 ± 0.097; P -0.295 ± 0.065; K 0.019 ± 0.074; C -0.025 ± 0.066; A -0.092 ± 0.045; S -0.016 ± 0.055; R -0.012 ± 0.042; L -0.1 ± 0.045; V -0.055 ± 0.043; F -0.018 ± 0.098; Q -0.016 ± 0.061; T -0.067 ± 0.082; Y -0.099 ± 0.13; H -0.09 ± 0.088
E12: I -0.201 ± 0.1; K -0.059 ± 0.065; L -0.182 ± 0.049; Y -0.251 ± 0.087; M -0.089 ± 0.072; Q -0.13 ± 0.065; D -0.092 ± 0.098; T -0.069 ± 0.078; N -0.048 ± 0.1; P -0.738 ± 0.04; C -0.19 ± 0.11; G -0.175 ± 0.056; F -0.315 ± 0.081; S -0.028 ± 0.049; W -0.253 ± 0.059; V -0.163 ± 0.052; H -0.169 ± 0.09
F10: E -0.875 ± 0.084; I -0.948 ± 0.11; H -0.258 ± 0.47; W -0.075 ± 0.062; Y 0.039 ± 0.28; L -0.731 ± 0.071; V -1.09 ± 0.07; Q -0.82 ± 0.072; D -1.01 ± 0.38; A -0.829 ± 0.067; K -0.857 ± 0.1; G -0.683 ± 0.055; P -0.677 ± 0.089; C -1.04 ± 0.17; M -0.522 ± 0.077; T -0.751 ± 0.087; N -0.562 ± 0.21; S -0.648 ± 0.061; R -0.88 ± 0.058
I9: S -0.191 ± 0.073; Q -0.202 ± 0.14; P -0.365 ± 0.079; N -0.223 ± 0.12; A -0.095 ± 0.068; T -0.217 ± 0.074; F -0.113 ± 0.15; H -0.518 ± 0.38; Y -0.181 ± 0.1; C -0.074 ± 0.077; K -0.258 ± 0.089; D -0.484 ± 0.091; V -0.131 ± 0.058; G -0.43 ± 0.046; E -0.38 ± 0.12; L -0.027 ± 0.064; R -0.172 ± 0.046

Reference: the Human Domainome abundance scans (Beltran et al. 2025)
